Assay results taken from the supplement of paper PMC9876800.

System: peptide library, one residue held at a place counted from the S/T acceptor
Assay: relative phosphorylation of the sub-library (ratio to the mean residue at this position); higher = residue favoured
Conditions: human
In short: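 Purified recombinant kinases, either human or orthologue constructs, were incubated in 384-well plates with biotinylated degenerate peptide sub-libraries. Each sub-library fixed one residue at one position around a central Ser/Thr. Peptides at 50 μM and 50 μM ATP spiked with γ-32P-ATP were used for 90 min under kinase-specific conditions, and spots on streptavidin membranes were phosphorimaged and quantified by densitometry. Relative sub-library phosphorylation is expressed as a ratio to the mean residue at that position.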

Chain of MAP4K4, construct: aa1-328 (O95819 1-328, looked up): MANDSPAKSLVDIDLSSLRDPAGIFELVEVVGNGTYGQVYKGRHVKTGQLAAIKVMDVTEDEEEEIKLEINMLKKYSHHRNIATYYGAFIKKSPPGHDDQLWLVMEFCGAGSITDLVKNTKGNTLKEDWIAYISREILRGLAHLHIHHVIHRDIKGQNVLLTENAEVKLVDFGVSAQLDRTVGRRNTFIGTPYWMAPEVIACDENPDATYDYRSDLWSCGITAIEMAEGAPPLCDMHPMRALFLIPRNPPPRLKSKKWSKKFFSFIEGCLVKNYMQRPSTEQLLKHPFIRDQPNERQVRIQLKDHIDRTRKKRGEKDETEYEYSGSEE
Chain of MAP3K8, construct: aa30-397 (P41279 30-397, looked up): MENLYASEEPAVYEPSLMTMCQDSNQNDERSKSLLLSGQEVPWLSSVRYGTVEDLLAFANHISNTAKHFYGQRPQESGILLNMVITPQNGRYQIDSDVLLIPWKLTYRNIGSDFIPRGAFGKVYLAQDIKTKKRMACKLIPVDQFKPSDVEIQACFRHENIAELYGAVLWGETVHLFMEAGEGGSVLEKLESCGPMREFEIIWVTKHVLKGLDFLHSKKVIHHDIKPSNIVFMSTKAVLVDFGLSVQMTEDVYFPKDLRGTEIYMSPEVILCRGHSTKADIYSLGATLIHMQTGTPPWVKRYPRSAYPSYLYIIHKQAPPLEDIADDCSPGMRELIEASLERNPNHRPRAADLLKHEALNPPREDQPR
Chain of MAPKAPK2, construct: Full length (P49137 whole entry, looked up): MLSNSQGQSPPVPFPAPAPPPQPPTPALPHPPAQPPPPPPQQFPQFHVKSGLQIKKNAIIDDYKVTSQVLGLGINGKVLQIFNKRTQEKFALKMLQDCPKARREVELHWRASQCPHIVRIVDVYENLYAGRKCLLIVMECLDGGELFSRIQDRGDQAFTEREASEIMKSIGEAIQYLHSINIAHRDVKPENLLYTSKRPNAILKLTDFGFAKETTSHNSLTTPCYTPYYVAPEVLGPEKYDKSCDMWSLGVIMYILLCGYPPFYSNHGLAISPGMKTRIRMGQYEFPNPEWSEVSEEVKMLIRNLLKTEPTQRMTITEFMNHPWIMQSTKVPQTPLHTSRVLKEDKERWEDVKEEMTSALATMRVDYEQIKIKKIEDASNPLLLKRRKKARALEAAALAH
Chain of MAP4K2, construct: Full length (Q12851 whole entry, looked up): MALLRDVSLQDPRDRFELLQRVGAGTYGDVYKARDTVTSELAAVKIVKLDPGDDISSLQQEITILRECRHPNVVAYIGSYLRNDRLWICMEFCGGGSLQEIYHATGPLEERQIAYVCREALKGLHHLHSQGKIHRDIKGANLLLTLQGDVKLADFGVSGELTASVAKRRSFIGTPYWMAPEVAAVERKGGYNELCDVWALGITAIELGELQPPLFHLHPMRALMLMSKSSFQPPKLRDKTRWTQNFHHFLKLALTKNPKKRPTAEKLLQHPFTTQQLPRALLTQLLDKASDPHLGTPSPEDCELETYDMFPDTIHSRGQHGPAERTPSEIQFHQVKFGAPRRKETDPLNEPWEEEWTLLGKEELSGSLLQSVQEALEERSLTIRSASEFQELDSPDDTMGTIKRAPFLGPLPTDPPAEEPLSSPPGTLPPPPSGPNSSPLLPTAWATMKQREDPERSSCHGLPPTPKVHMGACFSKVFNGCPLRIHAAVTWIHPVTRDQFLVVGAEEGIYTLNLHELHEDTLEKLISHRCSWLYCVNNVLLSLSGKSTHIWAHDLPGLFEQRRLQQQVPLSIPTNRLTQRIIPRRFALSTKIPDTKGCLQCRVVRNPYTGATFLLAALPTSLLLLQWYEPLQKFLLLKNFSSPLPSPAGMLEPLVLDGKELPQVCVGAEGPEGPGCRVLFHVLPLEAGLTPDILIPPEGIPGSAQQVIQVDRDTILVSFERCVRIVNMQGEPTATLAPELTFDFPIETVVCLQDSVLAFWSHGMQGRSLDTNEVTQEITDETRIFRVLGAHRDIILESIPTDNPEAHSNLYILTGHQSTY

MAP3K8, construct: aa30-397 (from UniProt P41279)
relative phosphorylation
Conditions	at +1	at +2	at +3	at +4	at -1	at -2	at -3	at -4	at -5
A fixed	0.997	0.962	0.971	1.12	0.924	0.801	0.815	1.17	1.27
D fixed	0.537	0.83	0.819	1.27	1.65	2	1.57	1.62	1.47
E fixed	0.66	1.12	0.961	1.44	1.2	1.5	1.62	1.51	1.27
F fixed	1.1	0.338	0.599	0.523	0.449	0.976	0.535	0.489	0.575
G fixed	1.23	0.736	1.2	1.09	1.31	1.23	1.36	1.51	1.41
H fixed	0.869	1.17	0.465	0.83	1.16	1.18	1.16	1.16	1.33
I fixed	0.847	0.952	0.832	0.655	0.336	0.554	0.382	0.479	0.435
K fixed	1.31	1.61	1.57	1.4	1.37	0.653	1.08	1.11	1.47
L fixed	0.9	0.938	1.22	0.771	0.746	0.816	0.59	0.55	0.576
M fixed	1.29	0.697	1.09	0.877	0.572	0.789	0.595	0.676	0.499
N fixed	0.996	1.67	1.03	0.997	1.5	1.35	1.32	1.35	1.25
P fixed	0.299	0.499	0.522	1.72	1.11	0.927	1.52	1.32	1.31
Q fixed	1.36	1.9	1.21	1.09	1.28	0.913	1.16	1.01	0.943
R fixed	1.31	1.5	1.73	1.02	1.41	0.717	1.15	1.05	1.08
V fixed	1.07	1.25	0.992	0.809	0.601	0.519	0.446	0.536	0.694
W fixed	0.806	0.382	0.78	0.689	0.591	0.805	0.835	0.707	0.834
Y fixed	1.41	0.438	1.01	0.688	0.782	1.28	0.856	0.761	0.575
pThr fixed	1.64	1.48	0.934	1.43	1.44	1.43	1.5	1.4	1.1
pTyr fixed	0.716	1.83	1.08	1.17	1.51	0.871	1.49	0.882	1.1

MAP4K2, construct: Full length (from UniProt Q12851)
relative phosphorylation
Conditions	at +1	at +2	at +3	at +4	at -1	at -2	at -3	at -4	at -5
A fixed	0.468	0.739	0.703	0.786	0.858	1.1	0.767	0.881	0.946
D fixed	0.266	0.979	0.592	0.804	0.927	0.912	0.852	1.09	1.01
E fixed	0.259	0.759	0.52	0.815	0.595	0.575	0.769	1.03	0.889
F fixed	1.07	0.58	0.762	0.866	0.722	1.27	0.852	1.09	1.12
G fixed	0.742	0.986	0.999	1.07	1.61	1.19	1.45	1.37	1.26
H fixed	0.576	1.03	1.1	1.06	1.17	1.29	1.09	0.999	1.07
I fixed	1.6	0.396	0.506	0.662	0.251	0.574	0.457	0.596	0.629
K fixed	0.519	2.31	2.03	1.65	1.48	0.754	1.69	1.05	1.18
L fixed	3.02	0.649	0.694	0.82	0.868	0.634	0.558	0.688	0.662
M fixed	3.03	0.78	0.773	0.938	1.03	0.778	0.706	0.852	0.858
N fixed	0.852	1.24	1.26	1.2	1.88	1.14	1.28	0.955	0.971
P fixed	0.398	1.21	1.29	1.03	0.954	1.09	1.3	1.38	1.12
Q fixed	0.581	1.11	0.996	1.22	1.09	0.908	1.05	0.921	0.834
R fixed	0.55	2.4	2.41	1.41	1.43	1.01	1.51	1.12	1.24
V fixed	0.749	0.486	0.583	0.665	0.311	0.66	0.438	0.596	0.765
W fixed	1.43	0.652	1	1.15	0.765	1.38	1.19	1.29	1.28
Y fixed	0.892	0.689	0.783	0.866	1.05	1.75	1.04	1.1	1.16
pThr fixed	1.48	1.36	1.3	0.836	0.698	1.24	1.13	1.2	1.27
pTyr fixed	0.518	0.636	0.953	0.756	0.759	0.98	1.08	1.11	1.15

MAP4K4, construct: aa1-328 (from UniProt O95819)
relative phosphorylation
Conditions	at +1	at +2	at +3	at +4	at -1	at -2	at -3	at -4	at -5
A fixed	0.704	0.925	0.833	1.06	1.11	1.09	1.06	1.03	1.31
D fixed	0.182	0.658	0.379	0.734	0.805	0.726	0.861	0.82	0.983
E fixed	0.181	0.553	0.325	0.487	0.423	0.544	0.672	0.913	0.714
F fixed	0.947	0.616	0.674	0.705	0.809	1.41	0.966	0.943	0.879
G fixed	0.648	1	0.812	1.2	1.65	1.07	1.23	1.08	1.27
H fixed	0.927	1.13	1.03	1.11	1.35	1.21	1.3	1.14	1.11
I fixed	1.72	0.567	0.575	0.689	0.42	0.804	0.7	0.744	0.807
K fixed	0.896	2.26	2.37	2.03	1.27	0.792	1.16	1.1	1.18
L fixed	2.32	0.728	0.734	0.785	0.941	0.776	0.809	0.808	0.752
M fixed	2.15	0.827	0.681	0.766	1.15	0.907	0.923	1.04	0.841
N fixed	0.688	0.905	0.823	0.956	1.17	0.952	1.09	0.929	0.843
P fixed	0.32	1.02	0.976	1.18	0.742	0.749	0.982	1	1.22
Q fixed	0.645	1.06	0.957	1.06	0.976	0.821	0.979	0.989	0.936
R fixed	0.851	2.49	3.56	1.97	1.41	0.934	1.18	1.16	1.13
V fixed	1.2	0.694	0.653	0.775	0.587	0.852	0.583	0.894	0.909
W fixed	1.6	0.756	0.871	0.823	0.892	1.42	1.27	1.28	1.09
Y fixed	1.02	0.806	0.746	0.669	1.28	1.94	1.22	1.13	1.04
pThr fixed	0.465	0.462	0.606	0.607	0.373	0.608	0.839	0.961	0.998
pTyr fixed	0.306	0.401	0.444	0.434	0.717	0.685	1.01	0.868	0.837

MAPKAPK2, construct: Full length (from UniProt P49137)
relative phosphorylation
Conditions	at +1	at +2	at +3	at +4	at -1	at -2	at -3	at -4	at -5
A fixed	0.699	0.907	0.885	0.974	0.808	1.19	0.604	1.22	0.754
D fixed	0.716	1.92	2.48	1.79	1.12	0.349	0.262	0.669	0.268
E fixed	1.27	1.5	2.42	1.7	0.802	0.749	0.302	1.17	0.22
F fixed	0.729	0.59	0.436	0.561	0.69	0.568	0.212	0.659	1.39
G fixed	0.752	1.47	1.58	1.39	0.733	1.14	0.445	0.999	0.366
H fixed	1.52	1.18	1.1	1.01	1.38	0.778	1.08	1.07	0.67
I fixed	0.928	0.688	0.313	0.575	0.664	0.438	0.111	0.696	1.28
K fixed	0.861	0.655	0.784	0.987	1.2	0.693	1.91	1.75	0.51
L fixed	0.728	0.594	0.432	0.579	0.949	1.04	0.171	0.954	1.65
M fixed	1.27	0.616	0.43	0.598	0.994	1.67	0.275	1.23	1.14
N fixed	1.43	1.4	1.07	1.23	1.49	0.846	0.645	0.843	0.345
P fixed	0.206	1.48	1.75	1.84	1.69	0.655	0.889	0.805	1.42
Q fixed	1.47	1.04	1.17	1.07	1.31	3.73	1.03	1.33	0.941
R fixed	1.36	0.726	0.631	0.755	0.778	1.37	7.97	1.61	1.59
V fixed	1.14	0.885	0.501	0.739	0.87	0.615	0.154	0.725	1.1
W fixed	0.801	0.642	0.5	0.646	0.582	0.586	0.636	0.661	2.38
Y fixed	1.12	0.708	0.521	0.564	0.935	0.577	0.296	0.599	0.983
pThr fixed	1.61	1.04	1.11	1.83	0.519	0.372	0.258	0.504	0.365
pTyr fixed	5.15	2.06	1.63	1.61	1.04	0.397	0.218	0.557	0.646
